Measurements published in patent US20220380471A1 (US Dept. of Health and Human Services, published 2022).

T1: monkey B7H3-His (monkey)
T1 chain: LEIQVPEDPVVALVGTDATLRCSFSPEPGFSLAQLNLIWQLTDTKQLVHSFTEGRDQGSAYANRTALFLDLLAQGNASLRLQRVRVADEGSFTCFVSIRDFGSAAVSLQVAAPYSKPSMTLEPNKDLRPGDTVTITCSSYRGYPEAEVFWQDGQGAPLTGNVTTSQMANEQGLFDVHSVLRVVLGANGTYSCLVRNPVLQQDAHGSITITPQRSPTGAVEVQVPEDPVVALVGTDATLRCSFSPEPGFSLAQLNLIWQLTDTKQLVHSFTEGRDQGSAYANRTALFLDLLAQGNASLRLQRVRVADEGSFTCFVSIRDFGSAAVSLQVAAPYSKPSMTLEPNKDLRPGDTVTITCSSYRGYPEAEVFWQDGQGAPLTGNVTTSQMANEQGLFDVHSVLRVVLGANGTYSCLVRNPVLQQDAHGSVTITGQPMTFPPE

T2: recombinant human B7H3-Fc protein (human, UniProt Q5ZPR3 29-466, limits assumed)
T2 construct: 154 kDa non-reduced, 77 kDa reduced; also called hB7H3-Fc; not shown: Fc part
T2 sequence (looked up): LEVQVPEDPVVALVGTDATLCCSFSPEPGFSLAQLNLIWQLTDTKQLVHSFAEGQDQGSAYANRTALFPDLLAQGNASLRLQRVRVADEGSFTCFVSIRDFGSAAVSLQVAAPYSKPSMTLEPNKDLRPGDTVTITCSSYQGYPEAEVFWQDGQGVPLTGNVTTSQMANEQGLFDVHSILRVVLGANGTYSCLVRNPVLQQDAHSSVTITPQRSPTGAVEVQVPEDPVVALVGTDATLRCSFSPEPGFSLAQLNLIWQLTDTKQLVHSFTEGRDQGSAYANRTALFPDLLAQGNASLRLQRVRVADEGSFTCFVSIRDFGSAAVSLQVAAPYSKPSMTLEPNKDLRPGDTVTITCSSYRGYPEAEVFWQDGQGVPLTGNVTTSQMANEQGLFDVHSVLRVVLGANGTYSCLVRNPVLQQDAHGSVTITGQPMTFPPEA

T3: hB7H3-His (human, UniProt Q5ZPR3 29-461, limits assumed)
T3 construct: not shown: His tag
T3 sequence (looked up): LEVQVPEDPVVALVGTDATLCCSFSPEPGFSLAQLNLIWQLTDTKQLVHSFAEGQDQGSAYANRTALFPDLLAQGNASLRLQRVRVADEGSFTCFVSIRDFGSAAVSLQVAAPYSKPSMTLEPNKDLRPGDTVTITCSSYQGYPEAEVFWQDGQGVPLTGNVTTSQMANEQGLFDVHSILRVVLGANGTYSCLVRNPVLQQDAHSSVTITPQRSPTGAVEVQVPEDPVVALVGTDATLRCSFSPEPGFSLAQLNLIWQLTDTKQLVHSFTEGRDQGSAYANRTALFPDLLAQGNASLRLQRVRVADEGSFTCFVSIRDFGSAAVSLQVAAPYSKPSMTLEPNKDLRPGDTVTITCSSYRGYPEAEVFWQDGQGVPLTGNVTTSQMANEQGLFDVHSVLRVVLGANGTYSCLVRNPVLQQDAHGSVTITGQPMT

T4: rat B7H3-His (rat, UniProt Q7TPB4 29-244, limits assumed)
T4 construct: not shown: His tag
T4 sequence (looked up): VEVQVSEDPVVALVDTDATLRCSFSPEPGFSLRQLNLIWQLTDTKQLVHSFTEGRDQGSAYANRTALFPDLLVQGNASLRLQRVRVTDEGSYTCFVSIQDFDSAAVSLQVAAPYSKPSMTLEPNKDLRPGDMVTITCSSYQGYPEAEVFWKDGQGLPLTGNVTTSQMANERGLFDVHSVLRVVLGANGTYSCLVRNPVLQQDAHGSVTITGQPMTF

T5: mouse B7H3-His (mouse, UniProt Q8VE98 29-244, limits assumed)
T5 construct: also called recombinant mouse B7H3-His protein; not shown: His tag
T5 sequence (looked up): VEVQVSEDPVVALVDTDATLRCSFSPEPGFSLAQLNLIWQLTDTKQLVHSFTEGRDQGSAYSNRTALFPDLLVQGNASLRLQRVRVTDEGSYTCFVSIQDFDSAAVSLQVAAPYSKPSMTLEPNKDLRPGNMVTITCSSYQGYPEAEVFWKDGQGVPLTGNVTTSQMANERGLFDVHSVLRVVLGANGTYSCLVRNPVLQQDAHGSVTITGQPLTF

T6: human B7H3 (human, UniProt Q5ZPR3 29-466, limits assumed)
T6 construct: also called human B7H3 protein
T6 sequence (looked up): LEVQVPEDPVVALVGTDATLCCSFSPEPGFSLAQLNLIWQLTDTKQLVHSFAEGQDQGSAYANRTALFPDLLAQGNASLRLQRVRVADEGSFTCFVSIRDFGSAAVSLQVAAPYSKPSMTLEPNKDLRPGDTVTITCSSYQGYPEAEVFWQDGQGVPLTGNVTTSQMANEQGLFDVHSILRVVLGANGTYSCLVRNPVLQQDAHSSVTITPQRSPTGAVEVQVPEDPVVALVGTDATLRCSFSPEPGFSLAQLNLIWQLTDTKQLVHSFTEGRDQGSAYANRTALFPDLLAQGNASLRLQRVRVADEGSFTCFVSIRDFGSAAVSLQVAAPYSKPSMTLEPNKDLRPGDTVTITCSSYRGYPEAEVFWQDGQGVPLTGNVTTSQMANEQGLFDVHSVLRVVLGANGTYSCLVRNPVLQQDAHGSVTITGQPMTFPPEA

T7: B7H3 (CD276) on MC38-CD276+ cells
T7 construct: whole, on cells; MC38-CD276KO cells served as the negative control; also called MC38-B7H3+
T7 sequence (Q5ZPR3 1-534, species assumed, looked up): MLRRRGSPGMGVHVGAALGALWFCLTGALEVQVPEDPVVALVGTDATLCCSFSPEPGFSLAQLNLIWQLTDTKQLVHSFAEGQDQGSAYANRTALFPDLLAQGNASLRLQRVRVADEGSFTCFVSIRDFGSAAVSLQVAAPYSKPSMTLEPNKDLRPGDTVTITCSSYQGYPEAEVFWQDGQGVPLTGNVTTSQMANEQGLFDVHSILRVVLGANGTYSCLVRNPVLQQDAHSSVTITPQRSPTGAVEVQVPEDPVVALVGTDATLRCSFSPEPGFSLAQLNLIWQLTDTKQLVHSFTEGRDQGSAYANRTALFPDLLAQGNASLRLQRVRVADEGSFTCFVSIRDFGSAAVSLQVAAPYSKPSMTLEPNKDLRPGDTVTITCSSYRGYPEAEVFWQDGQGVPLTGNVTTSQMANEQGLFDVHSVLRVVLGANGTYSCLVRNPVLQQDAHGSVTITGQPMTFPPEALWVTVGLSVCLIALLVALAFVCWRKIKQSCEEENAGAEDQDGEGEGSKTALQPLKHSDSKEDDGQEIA


Assays:
monkey B7H3-His [1] = biological target: T1, monkey B7H3-His; test: ELISA, purified VHH
How it was run: (§1)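 Phage panning on recombinant B7H3-Fc yielded camel VHH nanobodies, which were then purified. Their binding was tested by ELISA against immobilised recombinant proteins, including B7H3 fusion proteins and proteins other than B7H3, and recorded as the ELISA signal.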

monkey B7H3-His [2] = biological target: T1, monkey B7H3-His; test: phage ELISA, cross-species
How it was run: (§2)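 For 3 rounds, recombinant B7H3-Fc protein served as the panning target for camel VHH phage drawn from eight individual camels' libraries. Each entry gives the ELISA signal for binding of selected phage to an immobilised antigen, either human or other-species B7H3 or a control protein, measured by phage ELISA.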

[3] = biological target: T2, recombinant human B7H3-Fc protein; test: phage ELISA
How it was run: as §2

IgG control = test: phage ELISA
How it was run: as §2

[4] = biological target: T2, recombinant human B7H3-Fc protein; test: ELISA, purified VHH
How it was run: as §1

hB7H3-His = biological target: T3, hB7H3-His; test: ELISA, purified VHH
How it was run: as §1

rat B7H3-His [5] = biological target: T4, rat B7H3-His; test: ELISA, purified VHH
How it was run: as §1

Non-relevant antigen [6] = test: ELISA, purified VHH
How it was run: as §1

rat B7H3-His [7] = biological target: T4, rat B7H3-His; test: phage ELISA, cross-species
How it was run: as §2

mouse B7H3-His = biological target: T5, mouse B7H3-His; test: phage ELISA, cross-species
How it was run: as §2

human B7H3 = biological target: T6, human B7H3; test: phage ELISA, cross-species
How it was run: as §2

Non-relevant antigen [8] = test: phage ELISA, cross-species
How it was run: as §2

PD-L1 = test: ELISA, purified VHH, cross-reaction
PD-L1, sequence (Q9NZQ7 whole entry): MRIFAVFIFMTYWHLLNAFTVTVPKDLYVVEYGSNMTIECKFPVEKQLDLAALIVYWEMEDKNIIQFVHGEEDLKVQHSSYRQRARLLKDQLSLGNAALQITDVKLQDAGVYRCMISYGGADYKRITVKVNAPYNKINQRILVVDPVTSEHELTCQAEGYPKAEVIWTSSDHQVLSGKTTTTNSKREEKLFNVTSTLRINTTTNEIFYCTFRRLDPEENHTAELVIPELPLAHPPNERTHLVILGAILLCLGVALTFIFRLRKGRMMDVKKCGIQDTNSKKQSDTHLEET

[9] = biological target: T7, B7H3 (CD276) on MC38-CD276+ cells; test: flow cytometry on MC38-CD276+ cells, VHH at 2 ug/ml
[10] = biological target: T7, B7H3 (CD276) on MC38-CD276+ cells; test: flow cytometry on MC38-CD276+ cells, VHH at 10 ug/ml
[11] = biological target: T7, B7H3 (CD276) on MC38-CD276+ cells; test: flow cytometry on MC38-CD276+ cells, VHH at 50 ug/ml
[12] = biological target: T7, B7H3 (CD276) on MC38-CD276+ cells; test: flow cytometry on MC38-CD276+ cells, VHH at 0.5 ug/ml

Row | Binder | ELISA signal (monkey B7H3-His [1]) | ELISA signal (monkey B7H3-His [2]) | ELISA signal [3] | ELISA signal (IgG control) | ELISA signal [4] | ELISA signal (hB7H3-His) | ELISA signal (rat B7H3-His [5]) | ELISA signal (Non-relevant antigen [6]) | ELISA signal (rat B7H3-His [7]) | ELISA signal (mouse B7H3-His) | ELISA signal (human B7H3) | ELISA signal (Non-relevant antigen [8]) | ELISA signal (PD-L1) | Positive rates [9] | Positive rates [10] | Positive rates [11] | Positive rates [12]
1 | RWH5 (VHH, Camel VHH; tag not described; also called RWHS [sic]; camel antibody RWH5) VHH: AVQLVESGGGSVQAGGSLRLSCKASGYCMGWFRQAPGKEREGVAALNTEGGVTYYADSVKGRFSISRDNTNLYLQMNSLKPEDTAIYYCAADDRPTRCAVGSLYLPYTYRGQGTQVTVSS | 0.0979 | 2.22 |  |  |  |  |  |  |  |  |  |  |  |  |  |  | 
2 | RWH1 (VHH, Camel VHH; tag not described; also called camel antibody RWH1) VHH: AVQLVESGGGSVQAGGSLRLSCAASGMNLDNYVRGWLRQAPGSKCEFVSIIRRDGTTDYGDSVKGRFTISRDNAKNTVYLQMNSLKPDDTAVYYCAAIVVPRAAEYACDGLPYRGQGTQVTVSS | 1.3 | 0.0706 | 2.75 | 0.136 | 2.59 | 2.65 | 0.134 | 0.131 | 0.0951 | 0.0738 | 2.03 | 0.0608 | 0.0753 |  |  |  | 
3 | RWC3 (VHH, Camel VHH; tag not described; also called camel antibody RWC3) VHH: QVQLVESGGGLVQPGGSLSVSCAASGFTFSVYWFYWVRQAPRQGLEWVSTIASNGSTYYSDSVKGRFTISRDNAKNTVYLQMNSLKPEDTAVYYCVSDPDYYSDYERAYKFWAQGTQVTVSS |  | 0.228 | 2.42 | 0.0888 | 2.34 |  |  |  | 0.738 | 0.0759 | 2.14 | 0.0654 | 0.0454 |  |  |  | 

The next lines start with the values.

Row | ELISA signal (monkey B7H3-His [1]) | ELISA signal (monkey B7H3-His [2]) | ELISA signal [3] | ELISA signal (IgG control) | ELISA signal [4] | ELISA signal (hB7H3-His) | ELISA signal (rat B7H3-His [5]) | ELISA signal (Non-relevant antigen [6]) | ELISA signal (rat B7H3-His [7]) | ELISA signal (mouse B7H3-His) | ELISA signal (human B7H3) | ELISA signal (Non-relevant antigen [8]) | ELISA signal (PD-L1) | Positive rates [9] | Positive rates [10] | Positive rates [11] | Positive rates [12] | Binder
4 |  | 0.237 | 2.43 | 0.0788 | 0.499 |  |  |  | 0.778 | 0.0782 | 2.21 | 0.113 | 0.0438 |  |  |  |  | RWD9 (VHH, Camel VHH; tag not described; also called camel antibody RWD9) VHH: EVQLVESGGGLVQPGGSLSVSCAASGFTFSVYWFYWVRQAPRQGLEWVSTIASNGSTYYSDSVKGRFTISRDNAKNTVYLQMNSLKPEDTAVYYCVSDPDYYSDYERAYKFWAQGTQVTVSS
5 |  | 0.267 | 2.5 | 0.0685 | 2.37 |  |  |  | 0.871 | 0.0819 | 2.13 | 0.0583 | 0.0471 | 1.44% | 44.9% | 88.9% | 0.19% | RWD5 (VHH, Camel VHH; tag not described; also called RWDS [sic]; camel antibody RWD5) VHH: AVQLVESGGGLVQPGGSLSVSCAASGFTFSVYWFYWVRQAPRQGLEWVSTIASNGSTYYSDSVKGRFTISRDNAKNTVYLQMNSLKPEDTAVYYCVSDPDYYSDYEREYKFWAQGTQVTVSS
